Assay results reported in US7510708B2, “Disruption of the REG pathway” (Washington University, priority 2003, dated 2009).

B1: Reg Iα: Recombinant human Reg Iα protein expressed by fermentation in Pichia pastoris (protein)
chain: QEAQTELPQARISCPEGTNAYRSYCYYFNEDRETWVDADLYCQNMNSGNLVSVLTQAEGAFVASLIKESGTDDFNVWIGLHDPKKNRRWHWSSGSLVSYKSWGIGAPSSVNPGYCVSLTSSTGFQKWKDVPCEDKFSFVCKFKN
B2: Reg III: Recombinant human Reg III (pancreatitis-associated protein) expressed by fermentation in Pichia pastoris (protein)
chain: EEPQRELPSARIRCPKGSKAYGSHCYALFLSPKSWTDADLACQKRPSGNLVSVLSGAEGSFVSSLVKSIGNSYSYVWIGLHDPTQGTEPNGEGWEWSSSDVMNYFAWERNPSTISSPGHCASLSRSTAFLRWKDYNCNVRLPYVCKFTD

Columns and labels:
HT-29 cells = assay: Bcl-xl and Bcl-2 expression after recombinant Reg Iα treatment; format: cell-based; settings: FIG. 29 and 30
Description: Additional colorectal cell lines were also examined to determine if this was a generalized effect on gastrointestinal cells. […] To determine if the increases in Bcl-2 mRNA also were associated with changes in Bcl-2 protein expression, Western blotting was performed on cell lysates taken at various times following Reg treatment.

Akt = assay: Activation of the Akt pathway by phosphorylation in cancer cell lines; format: cell-based; settings: nanomolar concentrations; HCT116, HT29, N87 cells; FIGS. 19 and 20
Excerpt: One kinase responsible for protection against apoptosis in tumor cells may be Akt/protein kinase B. Akt, also referred to as Rac, regulates the balance between survival and apoptosis by several mechanisms. Akt may regulate the expression of anti-apoptotic proteins. Because of the effect of Reg on the regulation of Bcl-2 (and Bcl-xl, discussed later), we examined the effects of recombinant Reg IV and Reg Iα on the activation of the Akt pathway. […] Activated Akt has known pleiotropic effects (beyond effects on Bcl-2 family gene expression), reducing the amount of apoptosis occurring either at baseline or in response to a known proapoptotic stimulus.

HT29 = assay: Caspase activity in HT29 lysates following oxidative stress (hydrogen peroxide); format: cell-based; settings: nanomolar concentrations; HT29 lysates after hydrogen peroxide; FIG. 21
intestinal stem cells = assay: Survival of intestinal stem cells following 13 Gy radiation; format: in vivo, mouse; settings: pretreatment, FIGS. 27 and 28
Description: Gamma irradiation is a well-defined pro-apoptotic stimulus and is a commonly applied experimental approach to study intestinal epithelial cell death. […] At 6 hours marked apoptosis is seen in the crypt epithelium. By 24 hours, there is a loss of epithelial proliferation. Regenerating crypts, counted at 84 hours, are reflective of a single surviving stem cell.
(§1) Stem cells and their immediate progeny are the only cells in the normal epithelium that are capable of continued proliferation. In this context, epithelial malignancies may reflect a form of disordered stem cell biology. FIGS. 27 and 28 show the effect of exogenous Reg proteins on the survival of intestinal stem cells following 13 Gy radiation. […] We therefore conducted experiments to see if exogenous Reg would promote the survival of colorectal adenocarcinoma cells in response to gamma radiation.

[1] = test system: colorectal adenocarcinoma cells; assay: Survival of colorectal adenocarcinoma cells in response to gamma radiation; format: cell-based; settings: nanomolar concentrations, FIGS. 31 and 32
Excerpt: as §1

[2] = test system: colon cancer cell lines (e.g. HT29, SW480, T84); assay: Upregulation of mRNA of other Reg family members in colon cancer cell lines; format: cell-based; settings: FIG. 33
Excerpt: One explanation for this finding could be that a single Reg protein can upregulate expression of other members of the Reg family.

Molecule	expression of Bcl-xl and Bcl-2 (HT-29 cells)	activation by phosphorylation of Akt (Akt)	caspase activity / protection against peroxide-induced apoptosis (HT29)	stem cell survival (intestinal stem cells)	cell survival from gamma radiation [1]	mRNA coding for other members of the Reg gene family [2]
B1	increased expression of Bcl-xl and Bcl-2	rapid activation by phosphorylation of Akt	reduced caspase activity	significantly increased stem cell survival	improved cell survival	upregulation of mRNA coding for other members of the Reg gene family
B2						upregulation of mRNA coding for other members of the Reg gene family
